Assay results published in patent US20220296736A1, “ADMINISTRATION OF THERAPEUTIC AGENTS TO BRAIN AND OTHER CELLS AND TISSUE” (priority 2019, published 2022).

Key:
[1] = mouse, in vivo, iv; cited from earlier work
[2] = mouse, in vivo
Description: In the first step, we conjugated BV with DFO chelator and characterized resulting conjugate by means of its molecular weight and binding to vascular endothelial growth factor (VEGF). […] Next day PET-CT imaging was repeated and animals were sacrificed to perform ex vivo biodistribution of ^89ZrBVDFO.
(§1) All animal procedures were carried out under protocols approved by the Johns Hopkins Animal Care and Use Committee. Under general anesthesia with 1-2% isoflurane a catheter was placed in internal carotid artery of C3HeB/FeJ (Jackson, stock No. 000658), male, 6-8 weeks old mice, as we described previously (22) and animal was transferred to the PET-CT scanner. […] A CT scan (512 projections) was performed after dynamic scan for anatomical co-registration. PET/CT imaging was repeated around 24 h post infusion. PET data were reconstructed using the two-dimensional ordered subsets-expectation maximization algorithm (2D-OSEM) and corrected for dead time and radioactive decay. Presented whole body images were generated using Amira® (FEI, Hillsboro, Oreg.) and dynamic scans (brain and heart radioactivity accumulation) and radioactivity distribution in different brain regions were analyzed with PMOD 4.3 (PMOD Technologies LLC, Zurich, Switzerland).

[3] = mouse, in vivo; remark: listed apart in the source
Description: In the first step, we conjugated BV with DFO chelator and characterized resulting conjugate by means of its molecular weight and binding to vascular endothelial growth factor (VEGF).
as §1

[4] = human, in vivo, iv; cited from earlier work
[5] = Safety of IA mannitol-induced BBBO in the cortex (MRI and GFAP/IBA1 histology); assay type: in vivo, SCID mice
Description: Once cortical perfusion has been confirmed, 25% mannitol mixed with Gd (50:1) was infused until enhancement indicating BBB breach has been achieved (up to three bolus injections 1-2 min each; interval between infusions is 30 s). For detailed assessment of the BBB status, high resolution T1-weighted scan was collected after mannitol infusion. Three and seven days after OBBBO, the safety of the procedure was evaluated by MRI and then animals were sacrificed for further histological assessment.
For histological evaluation on the safety of OBBBO in the cortex, 7 days after surgery, animals (n=4) were anesthetized and perfused transcardially with 5% sucrose, followed by 4% paraformaldehyde (PFA). The brains were rapidly removed and post-fixed overnight in 4% PFA at 4° C. The brains were cryopreserved in 30% sucrose and 30-μm thick coronal sections were cryosectioned. Immunohistochemistry for anti-GFAP (1:250, Dako) and anti-Iba1 (1:250, Wako) was performed to assess the neuroinflammation. The secondary antibody was goat anti-rabbit (Alexa Fluor-488, 1:200, Molecular Probes). […] All the fluorescent images were acquired using an inverted microscope (Zeiss, Axio Observer Z1).
Data is expressed as mean±SD unless otherwise specified. Quantitation of immunohistochemistry was based on relative fluorescence using Image J and analyzed using a paired t-test. The ratio of ipsi-/contralateral was analyzed using an unpaired t-test. The MRI analysis of the change in area of the Gd perfusion territory and Gd-enhancement for each mouse was calculated using a custom-written script in MATLAB and analyzed using a paired t-test. A p-value less than 0.05 was considered significant.

[6] = Histological assessment of BV biodistribution and extravasation; assay type: in vivo, SCID mice; conditions: for localisation in brain tissue: one hour after delivery
Description: For histological evaluation on the safety of OBBBO in the cortex, 7 days after surgery, animals (n=4) were anesthetized and perfused transcardially with 5% sucrose, followed by 4% paraformaldehyde (PFA). The brains were rapidly removed and post-fixed overnight in 4% PFA at 4° C. The brains were cryopreserved in 30% sucrose and 30-μm thick coronal sections were cryosectioned. Immunohistochemistry for anti-GFAP (1:250, Dako) and anti-Iba1 (1:250, Wako) was performed to assess the neuroinflammation. The secondary antibody was goat anti-rabbit (Alexa Fluor-488, 1:200, Molecular Probes). For detecting the biodistribution of infused BV, the mice with OBBBO (n=4) and without OBBBO (n=3) were sacrificed 1 hour after administration. The brains were cryosectioned at 30 μm and the slices were stained with goat anti-human secondary antibody (Alexa Fluor-488, 1:200, Invitrogen). All the fluorescent images were acquired using an inverted microscope (Zeiss, Axio Observer Z1).
A p-value less than 0.05 was considered significant.

recombinant human VEGF-A = experiment: Functional binding assay of BV and BVDFO to VEGF (Bevacizumab ELISA); conditions: unmodified BV versus BVDFO conjugate
recombinant human VEGF-A, sequence (P15692 207-320 limits assumed): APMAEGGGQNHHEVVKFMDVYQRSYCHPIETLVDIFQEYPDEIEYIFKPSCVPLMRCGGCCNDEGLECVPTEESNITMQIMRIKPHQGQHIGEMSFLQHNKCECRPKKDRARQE
Description: The ELISA assay devoted for assessment of bevacizumab concentration has been used to assess the binding capacity of unmodified BV and BVDFO conjugate. The assay was carried out using Bevacizumab ELISA (ImmunoGuide, Eagle Bioscience) according to the manufacturer protocol. Briefly, 100 μg/mL, 50 μg/mL, 25 μg/mL of BV and BVDFO, as well as the provided standards were diluted 1:1000, and pipetted in 6 repetitions into the wells of the microtiter plate coated with recombinant human VEGF-A. Plate was incubated for 60 min in the room temperature and washed 3× with buffer. Next, horseradish peroxidase (HRP) conjugated anti-human IgG monoclonal antibody was added to each well, and incubated in room temperature for 30 min. Plate was washed 3× with the buffer and ready-to-use TMB substrate solution was added to each well. After 15 min incubation in dark, stop solution was added to each well and the color change from blue to yellow was observed. The absorbance at 450 nm was read using Victor 3 plate reader (Perkin Elmer) within 10 min after addition of the stop solution and expressed as optical density (OD).

[7] = Intravital 2PM visualization of cortical BBBO and drug extravasation; assay type: in vivo, SCID mice; conditions: IA infusion with 25% mannitol; 7 ROIs
Description: Before microscopy, isoflurane anesthetized mice (n=5) with cranial window and with arterial access as described above were stabilized in a custom-made frame immobilizing their head. The mice were positioned under an epi-fluorescent microscope and a 10× magnification objective was used for capturing images at frequency of 1-2 Hz. Saline solution of 0.001 mM rhodamine (0.58 kDa) was injected using a syringe infusion pump at the rate of 0.15 ml/min over 1 min via the ICA microcatheter to visualize trans-catheter perfusion. When the cortex was not perfused, the cCCA was closed temporarily for 20 s by engaging the weights.
For 2PM to visualize OBBBO and drug penetration, mice were placed under a multiphoton microscope (FV1000MPE, Olympus, Tokyo, Japan). A 10× objective (UPlanSApo, 0.40 NA and 3.1 mm working distance) was centered over the cranial window and used to collect time series images of 800×800 pixels (1.59 μm/pixel; 2 μs/pixel; 100 frames) at an estimated depth of 150 um below the cortical surface. Rhodamine (0.002 mM) mixed with BV-FITC (0.01 mM) was injected prior to OBBBO to collect baseline data and optimize cortical perfusion (temporary cCCA closure). Then, 25% mannitol mixed with rhodamine and BV-FITC was delivered at the rate of 0.15 ml/min for 4 mins in total. […]

## 89ZrBVDFO: bevacizumab conjugated with on average 3 molecules of DFO chelator and radiolabeled with 89Zr
[1]
  accumulation in the brain and tumors: no accumulation
[2]
  radioactivity accumulation in contralateral hemisphere: no radioactivity accumulation
  signal in the contralateral hemisphere: negligible signal
[2]; iv
  radioactivity in the entire brain: 2.91 % ID/cc
[3]
  clearance from the brain compared with 89ZrNB(DFO)2: slower
[4]
  uptake in diffuse intrinsic pontine glioma: some uptake in five out of seven patients

## OC[C@@H](O)[C@@H](O)[C@H](O)[C@H](O)CO [mannitol]
[5]; 3 and 7 days after BBBO
  brain damage after cortical BBBO induction (MRI and histology): did not cause brain damage
[5]; 7 days post BBBO, ipsilateral versus contralateral
  astrocytic or microglial activation in the BBBO region (GFAP and IBA-1 staining): no evidence of astrocytic or microglial activation
[5]; continuous 4 min-infusion
  brain damage after excessive exposure (T2 hyperintensity): led to brain damage

## BV: AVASTIN (BV, Roche), bevacizumab, antibody binding VEGF
[6]; IA delivery with OBBBO
  localisation in brain tissue: both blood vessels and parenchyma
[6]; IA delivery with intact BBB (BBBI)
  localisation in brain tissue: localized within the blood vessels
[6]; both groups (BBBI and OBBBO)
  uptake in ipsilateral vs. contralateral hemisphere (fluorescence intensity): significantly higher uptake

## BVDFO: bevacizumab conjugated with p-SCN-Bn-DFO chelator
Recombinant human VEGF-A
  binding to VEGF: did not affect its targeting properties

## rhodamine
[7]
  extravasation upon BBBO compared to BV-FITC (2PM fluorescence intensity): earlier onset and higher intensity of extravasation
